{"source": "patent US20030082135A1", "about": "“Pathway of RANTES-mediated chemokine synthesis in astrocytes and methods of use therefor” (priority 2001, published 2003)", "key": {"PKA": {"test_system": "PKA", "experiment": "PKA activity assay on lysates of treated astrocytes", "format": "cell-based, mouse", "method": "PKA activity assay. PKA activity was determined using a commercially available kit (Calbiochem, San Diego, Calif.) according to manufacturer's recommendations. Primary mouse astrocytes were grown in 6-well plates and then stimulated as described and lysed in 100 μl buffer (same buffer used for Western blotting) for 30 min. Five μl of the lysates were incubated with 20 μl PKA reaction mixture at 30° C. for 30 min. The reaction was terminated by adding 10 μl stop solution and ^32P radioactivity was counted."}, "Raf-1": {"test_system": "Raf-1", "experiment": "Raf-1 kinase activity in lysates of treated astrocytes (phosphorylation of MEK)", "format": "cell-based, mouse", "settings": "100 ng/ml RANTES", "method": "FIG. 12 is a set of bar graphs and a photograph of a Western blot showing that RANTES activated Raf-1 kinase activity in astrocytes. Panel A. Astrocytes were stimulated with 100 ng/ml RANTES for the indicated times and cell lysates were prepared for analysis of Raf-1 activity. Values are presented as relative Raf-1 kinase activity (percent) and represent the mean±S.E.M. of triplicate experiments. Panel B. Astrocytes were stimulated with 100 ng/ml RANTES for the indicated times and cell lysates were prepared for analysis by Western blotting. Blots were stained with anti phospho-Raf (Ser 259) Ab or control anti-Raf Ab. Panel C. […] Astrocytes were pretreated with the indicated doses of Raf-1 inhibitor for 1 h and then stimulated with 100 ng/ml RANTES for 3 h. Total RNA was prepared and assayed by RPA for expression of message for the indicated proinflammatory mediators and the housekeeping genes L32 and GAPDH. Representative data from one of three similar experiments are presented. […]\nIt is herein shown that RANTES induced Raf-1 kinase activity in 1 to 5 min; Raf-1 kinase activity peaked after 5-10 min (FIG. 12A). […] Increased Raf-1 enzyme activity was accompanied by dephosphorylation of Ser 259, an inhibitory phosphate site detected by a specific anti-Raf (Ser 259) antibody (FIG. 12B)."}}, "data": [{"substance": "RANTES", "values": [{"measurement": "inhibition of PKA activity", "setting": "PKA; 100 ng/ml RANTES, 20 min", "result": 60, "unit": "%"}, {"measurement": "time of maximal reduction of PKA kinase activity", "setting": "PKA; after RANTES stimulation", "result": 10, "unit": "min"}, {"measurement": "time of peak Raf-1 kinase activity", "setting": "Raf-1", "result": "5 to 10", "unit": "min"}]}]}
